The record followed here is the supplement of paper PMC10567573.

First the molecules themselves.
B1: SCNN1D (parent)
chain: FLGHHSFSVRPGTEATISIREDEV
B2: CLK3 (parent)
chain: FGEDYYGPSRSRHRRRSRERGPYR
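Further: lentivirally expressed fusions sorted by FACS into six bins by GFP to DsRed ratio, PSI derived from sequencing read proportions per bin multiplied by bin number.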

The first data set covers variants of B1. The data set is described as follows: protein stability index of a GFP-peptide fusion (GPS, HEK-293T) (PSI 1-6); higher = more stable. The conditions noted are these: c terminus: a fixed tail appended.
Turning to FLGPHSFSVRPGTEATISIREDEV [H4P], the protein stability index was 1.7.
As for FLGNHSFSVRPGTEATISIREDEV [H4N], the protein stability index came out at 2.29.
On the same count and under the same terms, the result for FLGDHSFSVRPGTEATISIREDEV [H4D] reads 3.7; that for FLGCHSFSVRPGTEATISIREDEV [H4C], 1.39; that for FLGVHSFSVRPGTEATISIREDEV [H4V], 1.77.
As to FLGIHSFSVRPGTEATISIREDEV [H4I], the protein stability index came out at 2.64.
The same measure, in the same setting: next, FLGYHSFSVRPGTEATISIREDEV [H4Y]: 1.42; FLGFHSFSVRPGTEATISIREDEV [H4F]: 3.4; FLGQHSFSVRPGTEATISIREDEV [H4Q]: 1.32.
Turning to FLGAHSFSVRPGTEATISIREDEV [H4A], the protein stability index was found to be 2.74.
On the same count and under the same terms, next, FLGLHSFSVRPGTEATISIREDEV [H4L]: 2.08; FLGTHSFSVRPGTEATISIREDEV [H4T]: 2.16; FLGEHSFSVRPGTEATISIREDEV [H4E]: 3.39.
On the same count and under the same terms, the result for FLGGHSFSVRPGTEATISIREDEV [H4G] reads 2.2.
As for FLGMHSFSVRPGTEATISIREDEV [H4M], the protein stability index was 1.58.
Same read-out and setting: the result for FLGSHSFSVRPGTEATISIREDEV [H4S] reads 1.9; that for FLGRHSFSVRPGTEATISIREDEV [H4R], 2.68.
As for FLGKHSFSVRPGTEATISIREDEV [H4K], the protein stability index was determined as 2.16.
Still for that read-out and setting: next, FYGHHSFSVRPGTEATISIREDEV [L2Y]: 3.44; FWGHHSFSVRPGTEATISIREDEV [L2W]: 2.4; FGGHHSFSVRPGTEATISIREDEV [L2G]: 2.72.
Same read-out and setting: the result for FDGHHSFSVRPGTEATISIREDEV [L2D] reads 5.03.
On the same count and under the same terms, next, FRGHHSFSVRPGTEATISIREDEV [L2R]: 4.48.
For FMGHHSFSVRPGTEATISIREDEV [L2M], the protein stability index is 1.95.
Still for that read-out and setting: the result for FIGHHSFSVRPGTEATISIREDEV [L2I] reads 2.44; that for FTGHHSFSVRPGTEATISIREDEV [L2T], 3.09; that for FNGHHSFSVRPGTEATISIREDEV [L2N], 3.15.
Still for that read-out and setting: next, FAGHHSFSVRPGTEATISIREDEV [L2A]: 1.66; FEGHHSFSVRPGTEATISIREDEV [L2E]: 4.5; FHGHHSFSVRPGTEATISIREDEV [L2H]: 1.33.
The same measure, in the same setting: the result for FVGHHSFSVRPGTEATISIREDEV [L2V] reads 2.64.
As to FCGHHSFSVRPGTEATISIREDEV [L2C], the protein stability index was 2.18.
On the same count and under the same terms, next, FSGHHSFSVRPGTEATISIREDEV [L2S]: 1.76.
Same read-out and setting: next, FFGHHSFSVRPGTEATISIREDEV [L2F]: 2.93; FPGHHSFSVRPGTEATISIREDEV [L2P]: 1.72; FKGHHSFSVRPGTEATISIREDEV [L2K]: 4.07.
With FQGHHSFSVRPGTEATISIREDEV [L2Q], the protein stability index turned out to be 1.95.
Same read-out and setting: the result for FLPHHSFSVRPGTEATISIREDEV [G3P] reads 4.02; that for FLKHHSFSVRPGTEATISIREDEV [G3K], 3.02; that for FLIHHSFSVRPGTEATISIREDEV [G3I], 1.59.
On the same count and under the same terms, next, FLAHHSFSVRPGTEATISIREDEV [G3A]: 1.95.
Same read-out and setting: the result for FLEHHSFSVRPGTEATISIREDEV [G3E] reads 2.58; that for FLHHHSFSVRPGTEATISIREDEV [G3H], 2.71.
Consider FLFHHSFSVRPGTEATISIREDEV [G3F], for which the protein stability index is 3.48.
Same read-out and setting: next, FLSHHSFSVRPGTEATISIREDEV [G3S]: 2.42.
On the same count and under the same terms, the result for FLDHHSFSVRPGTEATISIREDEV [G3D] reads 2.77.
On the same count and under the same terms, next, FLNHHSFSVRPGTEATISIREDEV [G3N]: 2.26.
In the case of FLVHHSFSVRPGTEATISIREDEV [G3V], the protein stability index was 1.64.
On to FLLHHSFSVRPGTEATISIREDEV [G3L], for which the protein stability index was 2.28.
On the same count and under the same terms, the result for FLTHHSFSVRPGTEATISIREDEV [G3T] reads 2.23; that for FLCHHSFSVRPGTEATISIREDEV [G3C], 2.51.
Still for that read-out and setting: the result for FLMHHSFSVRPGTEATISIREDEV [G3M] reads 1.42.
Regarding FLRHHSFSVRPGTEATISIREDEV [G3R], the protein stability index amounted to 2.09.
On the same count and under the same terms, the result for FLYHHSFSVRPGTEATISIREDEV [G3Y] reads 3.25.
On the same count and under the same terms, next, GLGHHSFSVRPGTEATISIREDEV [F1G]: 4.59.
On the same count and under the same terms, the result for VLGHHSFSVRPGTEATISIREDEV [F1V] reads 4.15; that for CLGHHSFSVRPGTEATISIREDEV [F1C], 3.57.
In the case of SLGHHSFSVRPGTEATISIREDEV [F1S], the protein stability index came out at 4.38.
On to NLGHHSFSVRPGTEATISIREDEV [F1N], for which the protein stability index was found to be 4.38.
For the variant WLGHHSFSVRPGTEATISIREDEV [F1W], the protein stability index came to 2.77.
Same read-out and setting: the result for KLGHHSFSVRPGTEATISIREDEV [F1K] reads 4.3; that for ELGHHSFSVRPGTEATISIREDEV [F1E], 5.02; that for LLGHHSFSVRPGTEATISIREDEV [F1L], 3.99.
For the variant ILGHHSFSVRPGTEATISIREDEV [F1I], the protein stability index worked out at 4.02.
On the same count and under the same terms, next, TLGHHSFSVRPGTEATISIREDEV [F1T]: 4.8; DLGHHSFSVRPGTEATISIREDEV [F1D]: 4.78.
Same read-out and setting: the result for QLGHHSFSVRPGTEATISIREDEV [F1Q] reads 4.33; that for RLGHHSFSVRPGTEATISIREDEV [F1R], 4.42; that for ALGHHSFSVRPGTEATISIREDEV [F1A], 3.92.
Still for that read-out and setting: next, PLGHHSFSVRPGTEATISIREDEV [F1P]: 4.64.
Turning to YLGHHSFSVRPGTEATISIREDEV [F1Y], the protein stability index came out at 1.97.
On the same count and under the same terms, next, HLGHHSFSVRPGTEATISIREDEV [F1H]: 4.49; MLGHHSFSVRPGTEATISIREDEV [F1M]: 4.68.
Same read-out and setting: the result for FLGHCSFSVRPGTEATISIREDEV [H5C] reads 1.53; that for FLGHASFSVRPGTEATISIREDEV [H5A], 2.46.

Variants of B2 are the subject of the next data set. Described as above. The conditions noted are these: c terminus: a fixed tail appended.
As for FGEDYYGPSRSVHRRRSRERGPYR [R12V], the protein stability index turned out to be 2.11.
With FGEDYYGPSRSQHRRRSRERGPYR [R12Q], the protein stability index is 2.31.
The same measure, in the same setting: next, EGEDYYGPSRSRHRRRSRERGPYR [F1E]: 5.1; FGEDYYGPSRSRKRRRSRERGPYR [H13K]: 3.53; FFEDYYGPSRSRHRRRSRERGPYR [G2F]: 3.98.
Regarding FGEDYYGPSRSRHSRRSRERGPYR [R14S], the protein stability index was 2.19.
Same read-out and setting: the result for FGEDYYGPSRSRHRRRSREHGPYR [R20H] reads 2.44.
Same read-out and setting: the result for FGEDYYGPSRSRHRRRSREEGPYR [R20E] reads 2.27.
The same measure, in the same setting: the result for FGEDYYGESRSRHRRRSRERGPYR [P8E] reads 2.56; that for FGVDYYGPSRSRHRRRSRERGPYR [E3V], 4.08; that for FGEWYYGPSRSRHRRRSRERGPYR [D4W], 2.16.
Turning to FGEMYYGPSRSRHRRRSRERGPYR [D4M], the protein stability index was determined as 2.29.
On the same count and under the same terms, the result for FGEDYYGPSRSRHRRRSREREPYR [G21E] reads 2.11; that for FGEDYYGPSRSRHRRQSRERGPYR [R16Q], 2.97.
As for FGEDYYGPSRSRHRRRSEERGPYR [R18E], the protein stability index turned out to be 1.8.
Still for that read-out and setting: next, FGEDYYLPSRSRHRRRSRERGPYR [G7L]: 2.96; FGEDYYGPSRSRHRRRSRERGDYR [P22D]: 2.8.
On the same count and under the same terms, next, FGEDYYGPSRSRHRRRSRERGNYR [P22N]: 2.54; FGEDYYGPSRSRHRRRSRARGPYR [E19A]: 3.59.
